According to article PMC10397247:

Assays:
[1] = molecular target: T1, 4H780-bH; experiment: two-hybrid library CCNG1;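 note: natural log of median RNA to DNA barcode read ratio; higher means stronger binding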
T1 chain: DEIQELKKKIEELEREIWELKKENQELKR

[2] = molecular target: T2, 4H953-bH; experiment: two-hybrid library CCNG1;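 note: natural log of median RNA to DNA barcode read ratio; higher means stronger binding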
T2 chain: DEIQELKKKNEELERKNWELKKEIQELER

[3] = molecular target: T3, 4H3926-bH; experiment: two-hybrid library CCNG1;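 note: natural log of median RNA to DNA barcode read ratio; higher means stronger binding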
T3 chain: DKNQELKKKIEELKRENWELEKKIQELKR

[4] = molecular target: T4, 4H2702-bH; experiment: two-hybrid library CCNG1;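 note: natural log of median RNA to DNA barcode read ratio; higher means stronger binding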
T4 chain: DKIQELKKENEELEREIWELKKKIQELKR

[5] = molecular target: T5, 4H2627-bH; experiment: two-hybrid library CCNG1;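 note: natural log of median RNA to DNA barcode read ratio; higher means stronger binding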
T5 chain: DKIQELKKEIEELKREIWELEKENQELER

[6] = molecular target: T6, 4H2673-bH; experiment: two-hybrid library CCNG1;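 note: natural log of median RNA to DNA barcode read ratio; higher means stronger binding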
T6 chain: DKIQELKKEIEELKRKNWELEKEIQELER

[7] = molecular target: T7, 4H457-bH; experiment: two-hybrid library CCNG1
T7 chain: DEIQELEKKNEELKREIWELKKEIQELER

[8] = molecular target: T8, 4H797-bH; experiment: two-hybrid library CCNG1
T8 chain: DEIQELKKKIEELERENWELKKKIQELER

[9] = molecular target: T9, 4H3010-bH; experiment: two-hybrid library CCNG1
T9 chain: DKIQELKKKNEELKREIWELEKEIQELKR

[10] = molecular target: T10, 4H683-bH; experiment: two-hybrid library CCNG1
T10 chain: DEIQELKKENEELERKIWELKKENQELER

[11] = molecular target: T11, 4H4073-bH; experiment: two-hybrid library CCNG1
T11 chain: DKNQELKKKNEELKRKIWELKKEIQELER

[12] = molecular target: T12, 4H346-bH; experiment: two-hybrid library CCNG1
T12 chain: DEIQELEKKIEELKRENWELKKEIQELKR

[13] = molecular target: T13, 4H918-bH; experiment: two-hybrid library CCNG1
T13 chain: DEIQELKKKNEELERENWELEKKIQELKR

[14] = molecular target: T14, 4H855-bH; experiment: two-hybrid library CCNG1
T14 chain: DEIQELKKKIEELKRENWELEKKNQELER

[15] = molecular target: T15, 4H968-bH; experiment: two-hybrid library CCNG1
T15 chain: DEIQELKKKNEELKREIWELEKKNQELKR

[16] = molecular target: T16, 4H3427-bH; experiment: two-hybrid library CCNG1
T16 chain: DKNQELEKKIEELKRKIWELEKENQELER

[17] = molecular target: T17, 4H754-bH; experiment: two-hybrid library CCNG1
T17 chain: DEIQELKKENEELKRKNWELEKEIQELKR

[18] = molecular target: T18, 4H575-bH; experiment: two-hybrid library CCNG1
T18 chain: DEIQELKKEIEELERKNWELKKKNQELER

[19] = molecular target: T19, 4H3112-bH; experiment: two-hybrid library CCNG1
T19 chain: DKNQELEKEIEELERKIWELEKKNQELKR

[20] = molecular target: T20, 4H591-bN; experiment: two-hybrid library CCNG1
T20 chain: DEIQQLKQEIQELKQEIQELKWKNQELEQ

[21] = molecular target: T21, 4H3858-bN; experiment: two-hybrid library CCNG1
T21 chain: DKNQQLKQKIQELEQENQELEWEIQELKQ

[22] = molecular target: T22, 4H717-bH; experiment: two-hybrid library CCNG1
T22 chain: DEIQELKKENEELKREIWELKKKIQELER

[23] = molecular target: T23, 4H3817-bN; experiment: two-hybrid library CCNG1
T23 chain: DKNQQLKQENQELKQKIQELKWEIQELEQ

[24] = molecular target: T24, 4H3974-bN; experiment: two-hybrid library CCNG1
T24 chain: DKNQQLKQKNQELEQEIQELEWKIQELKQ

[25] = molecular target: T25, 4H906-bN; experiment: two-hybrid library CCNG1
T25 chain: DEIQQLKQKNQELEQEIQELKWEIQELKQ

[26] = molecular target: T26, 4H3613-bN; experiment: two-hybrid library CCNG1
T26 chain: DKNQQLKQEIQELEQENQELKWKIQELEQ

[27] = molecular target: T27, 4H850-bN; experiment: two-hybrid library CCNG1
T27 chain: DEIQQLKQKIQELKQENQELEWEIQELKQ

[28] = molecular target: T28, 4H3298-bN; experiment: two-hybrid library CCNG1
T28 chain: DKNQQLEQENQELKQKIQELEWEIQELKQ

[29] = molecular target: T29, 4H3497-bN; experiment: two-hybrid library CCNG1
T29 chain: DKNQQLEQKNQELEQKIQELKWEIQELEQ

[30] = molecular target: T30, 4H3162-bN; experiment: two-hybrid library CCNG1
T30 chain: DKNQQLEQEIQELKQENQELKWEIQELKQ

[31] = molecular target: T31, 4H3628-bN; experiment: two-hybrid library CCNG1
T31 chain: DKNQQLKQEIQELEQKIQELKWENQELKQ

[32] = molecular target: T32, 4H626-bN; experiment: two-hybrid library CCNG1
T32 chain: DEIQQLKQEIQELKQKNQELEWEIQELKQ

[33] = molecular target: T33, 4H953-bA; experiment: two-hybrid library CCNG1
T33 chain: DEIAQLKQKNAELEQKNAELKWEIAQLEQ

[34] = molecular target: T34, 4H3462-bN; experiment: two-hybrid library CCNG1
T34 chain: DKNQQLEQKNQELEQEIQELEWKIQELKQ

[35] = molecular target: T35, 4H570-bN; experiment: two-hybrid library CCNG1
T35 chain: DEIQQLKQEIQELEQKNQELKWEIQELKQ

[36] = molecular target: T36, 4H1899-bN; experiment: two-hybrid library CCNG1
T36 chain: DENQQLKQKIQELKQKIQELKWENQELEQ

[37] = molecular target: T37, 4H3277-bN; experiment: two-hybrid library CCNG1
T37 chain: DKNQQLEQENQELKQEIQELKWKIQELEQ

[38] = molecular target: T38, 4H1985-bN; experiment: two-hybrid library CCNG1
T38 chain: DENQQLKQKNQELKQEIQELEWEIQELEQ

[39] = molecular target: T39, 4H3926-bN; experiment: two-hybrid library CCNG1
T39 chain: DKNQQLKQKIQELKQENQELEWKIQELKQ

[40] = molecular target: T40, 4H2697-bN; experiment: two-hybrid library CCNG1
T40 chain: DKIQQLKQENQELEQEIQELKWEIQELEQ

[41] = molecular target: T41, 4H3175-bN; experiment: two-hybrid library CCNG1
T41 chain: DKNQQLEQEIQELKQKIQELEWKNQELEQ

[42] = molecular target: T42, 4H3961-bA; experiment: two-hybrid library CCNG1
T42 chain: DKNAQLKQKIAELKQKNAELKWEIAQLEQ

[43] = molecular target: T43, 4H3907-bA; experiment: two-hybrid library CCNG1
T43 chain: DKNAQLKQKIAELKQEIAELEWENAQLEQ

[44] = molecular target: T44, 4H470-bA; experiment: two-hybrid library CCNG1
T44 chain: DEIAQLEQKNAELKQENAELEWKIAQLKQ

[45] = molecular target: T45, 4H4038-bA; experiment: two-hybrid library CCNG1
T45 chain: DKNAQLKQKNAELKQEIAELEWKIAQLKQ

[46] = molecular target: T46, 4H607-bA; experiment: two-hybrid library CCNG1
T46 chain: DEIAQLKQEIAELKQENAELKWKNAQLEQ

[47] = molecular target: T47, 4H2760-bN; experiment: two-hybrid library CCNG1
T47 chain: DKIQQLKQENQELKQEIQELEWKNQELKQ

[48] = molecular target: T48, 4H3364-bN; experiment: two-hybrid library CCNG1
T48 chain: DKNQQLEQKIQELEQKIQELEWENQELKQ

[49] = molecular target: T49, 4H3381-bN; experiment: two-hybrid library CCNG1
T49 chain: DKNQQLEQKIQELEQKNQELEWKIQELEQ

[50] = molecular target: T50, 4H570-bH; experiment: two-hybrid library CCNG1
T50 chain: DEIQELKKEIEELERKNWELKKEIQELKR

[51] = molecular target: T51, 4H796-bN; experiment: two-hybrid library CCNG1
T51 chain: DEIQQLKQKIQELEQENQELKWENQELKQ

[52] = molecular target: T52, 4H349-bN; experiment: two-hybrid library CCNG1
T52 chain: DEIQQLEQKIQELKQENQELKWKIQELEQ

[53] = molecular target: T53, 4H2585-bN; experiment: two-hybrid library CCNG1
T53 chain: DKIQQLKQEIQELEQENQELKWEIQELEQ

[54] = molecular target: T54, 4H2859-bN; experiment: two-hybrid library CCNG1
T54 chain: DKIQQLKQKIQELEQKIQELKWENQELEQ

[55] = molecular target: T55, 4H264-bN; experiment: two-hybrid library CCNG1
T55 chain: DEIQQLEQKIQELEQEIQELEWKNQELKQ

[56] = molecular target: T56, 4H932-bN; experiment: two-hybrid library CCNG1
T56 chain: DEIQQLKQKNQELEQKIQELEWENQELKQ

[57] = molecular target: T57, 4H730-bN; experiment: two-hybrid library CCNG1
T57 chain: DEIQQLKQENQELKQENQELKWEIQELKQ

[58] = molecular target: T58, 4H949-bN; experiment: two-hybrid library CCNG1
T58 chain: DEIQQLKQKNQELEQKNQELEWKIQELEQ

[59] = molecular target: T59, 4H3041-bN; experiment: two-hybrid library CCNG1
T59 chain: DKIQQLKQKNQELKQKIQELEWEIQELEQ

[60] = molecular target: T60, 4H2931-bN; experiment: two-hybrid library CCNG1
T60 chain: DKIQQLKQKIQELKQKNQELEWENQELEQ

[61] = molecular target: T61, 4H2518-bN; experiment: two-hybrid library CCNG1
T61 chain: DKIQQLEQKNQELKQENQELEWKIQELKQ

[62] = molecular target: T62, 4H56-bN; experiment: two-hybrid library CCNG1
T62 chain: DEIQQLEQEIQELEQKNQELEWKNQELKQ

[63] = molecular target: T63, 4H3297-bN; experiment: two-hybrid library CCNG1
T63 chain: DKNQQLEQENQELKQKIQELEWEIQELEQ

[64] = molecular target: T64, O8-bN; experiment: two-hybrid library CCNG1
T64 chain: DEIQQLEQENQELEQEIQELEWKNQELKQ

[65] = molecular target: T65, Q8-AA; experiment: two-hybrid library CCmax
T65 chain: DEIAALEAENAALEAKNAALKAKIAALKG

## DKIQELKKEIEELKREIWELEKENQELER [4H2627-bH]
[1]
  interaction score: -0.424
[2]
  interaction score: -1.4
[3]
  interaction score: -0.251
[4]
  interaction score: 0.512
[5]
  interaction score: 1.3
[6]
  interaction score: 0.273
[7]
  interaction score: -1.91
[8]
  interaction score: -0.67
[9]
  interaction score: 0.547
[10]
  interaction score: 0.431
[11]
  interaction score: 1.38
[12]
  interaction score: -0.309
[13]
  interaction score: -0.493
[14]
  interaction score: -0.425
[15]
  interaction score: 0.133
[16]
  interaction score: 1.18
[17]
  interaction score: -1.94
[18]
  interaction score: -0.0013
[19]
  interaction score: -0.225

## DENQQLKQKIQELKQKIQELKWENQELEQ [4H1899-bN]
[20]
  interaction score: -1.42
[21]
  interaction score: -0.633
[22]
  interaction score: -0.282
[23]
  interaction score: -0.969
[24]
  interaction score: -0.336
[25]
  interaction score: -0.654
[26]
  interaction score: 0.0619
[27]
  interaction score: -1.55
[28]
  interaction score: -0.744
[29]
  interaction score: -0.658
[30]
  interaction score: -0.75
[31]
  interaction score: 0.469
[32]
  interaction score: -0.642
[33]
  interaction score: -1.81
[34]
  interaction score: -2.27
[35]
  interaction score: -1
[36]
  interaction score: -1.24
[37]
  interaction score: -1.21
[38]
  interaction score: -0.785
[39]
  interaction score: -0.429
[40]
  interaction score: -1.18
[41]
  interaction score: -0.0673

## DKNAQLKQKIAELKQEIAELEWENAQLEQ [4H3907-bA]
[42]
  interaction score: -1.16
[43]
  interaction score: 0.8
[44]
  interaction score: -1.37
[45]
  interaction score: -0.611
[46]
  interaction score: -0.806

## DKIQQLEQKNQELKQENQELEWKIQELKQ [4H2518-bN]
[47]
  interaction score: 0.227
[48]
  interaction score: -0.536
[49]
  interaction score: -0.272
[50]
  interaction score: -2.15
[51]
  interaction score: 0.473
[52]
  interaction score: -0.274
[53]
  interaction score: 0.403
[54]
  interaction score: -0.834
[55]
  interaction score: 1.11
[56]
  interaction score: -0.482
[57]
  interaction score: 1.02
[58]
  interaction score: -0.152
[59]
  interaction score: -0.522
[60]
  interaction score: -0.539
[61]
  interaction score: -0.0161
[62]
  interaction score: -0.0872
[63]
  interaction score: -0.555

## DKNQQLEQEIQELKQENQELKWEIQELKQ [4H3162-bN]
[20]
  interaction score: -1.33
[64]
  interaction score: -3.16
[25]
  interaction score: -0.289
[26]
  interaction score: -1.7
[28]
  interaction score: -0.102
[29]
  interaction score: -0.903
[30]
  interaction score: 0.979
[31]
  interaction score: -0.668
[32]
  interaction score: -1.41
[34]
  interaction score: 0.241
[37]
  interaction score: -0.514
[39]
  interaction score: 0.163
[41]
  interaction score: -0.427

## DKNAQLKQKNAELKQEIAELEWKIAQLKQ [4H4038-bA]
[45]
  interaction score: -0.541

## DEIAALEAENAALEAKNAALKAKIAALKG [Q8-AA]
[65]
  interaction score: -1.19
